# Measured values published in PMC12474881.
# How the values were obtained:
# CaMKIIδ-0 F368A (human) = experiment: mass photometry
# [1] = biological target: CaMKIIδ-0 F368A/L405M (human); experiment: mass photometry
# [2] = biological target: CaMKIIδ-0 F368A/Q407A (human); experiment: mass photometry
# [3] = biological target: CaMKIIβ with exon 14 only as the variable linker (human)
# [4] = biological target: CaMKIIα with exon 18 only as the variable linker (human)
# [5] = biological target: CaMKIIα with exon 14 only as the variable linker (human)
# [6] = biological target: CaMKIIδ with exon 14 only as the variable linker (human)
# [7] = biological target: CaMKIIα exon 18 with all Ser and Thr residues in exon 18 mutated to Ala (human)
# [8] = biological target: CaMKIIα with the sequence of exon 18 reversed (human)
# [9] = biological target: CaMKIIα with acidic exon 14 (all basic residues of exon 14 mutated to acidic residues) (human)
# [10] = biological target: CaMKIIα mutants with acidic exon 18 positioned proximal to the regulatory segment
# [11] = biological target: CaMKIIα with basified exon 18 (human)
substance,measurement,setting,value
CaMKIIδ-0 F368A (enzyme),percent of the total population as dimers at 25 nM,CaMKIIδ-0 F368A (human),20%
same,percent of the total population as dimers at 100 nM,CaMKIIδ-0 F368A (human),10%
same,percent of the total population as tetramers at 100 nM,CaMKIIδ-0 F368A (human),5%
same,stoichiometry N,CaMKIIδ-0 F368A (human),14
CaMKIIδ-0 F368A/L405M (enzyme),percent of the population as tetradecameric holoenzyme at 100 nM,[1],5%
same,stoichiometry N,[1],2
CaMKIIδ-0 F368A/Q407A (enzyme),percent of the population as tetradecameric holoenzyme at 100 nM,[2],5%
same,stoichiometry N,[2],2
Calmodulin (Gallus gallus) (from UniProt P62149 1-149) (natural protein),EC50 of Ca2+/CaM for kinase activity against syntide-2 (coupled kinase assay),[3],20 nM
same,EC50 of Ca2+/CaM for kinase activity against syntide-2 (coupled kinase assay),[4],193 nM
same,EC50 of Ca2+/CaM for kinase activity against syntide-2 (coupled kinase assay),[5],17 nM
same,EC50 of Ca2+/CaM for kinase activity against syntide-2 (coupled kinase assay),[6],20 nM
same,EC50 of Ca2+/CaM for kinase activity (coupled kinase assay),[7],350 nM
same,EC50 of Ca2+/CaM for kinase activity against syntide-2 (coupled kinase assay),[8],41 nM
same,EC50 of Ca2+/CaM for kinase activity against syntide-2 (coupled kinase assay),[9],102 nM
same,EC50 of Ca2+/CaM for kinase activity (coupled kinase assay),[10],70 nM
same,EC50 of Ca2+/CaM for kinase activity against syntide-2 (coupled kinase assay),[11],34 nM
